Laboratory results from US20170182124A1, “FGF21 Derivatives and Uses Thereof” (Novo Nordisk A/S, priority 2014, published 2017).
Like-named read-outs stand apart in the source and are kept apart here.

Legend:
FGF receptor/BKL complex = experiment: FGF receptor potency in an Erk phosphorylation assay in HEK293 overexpressing human BKL; type: cell-based; settings: for EC50: HEK293/BKL cells, pERK after 12 minutes
Protocol: In order to test the binding of the FGF21 derivatives to albumin, the assay was performed in the absence of serum albumin as well as in the presence of human serum albumin (HSA) (0.1% final assay concentration). An increase in EC50 value (decrease in potency) in the presence of serum albumin for FGF21 derivatives would indicate binding to serum albumin and represents a method to predict a protracted pharmacokinetic profile of the test substance in animal models. MetFGF21 (SEQ ID NO:2) is included for reference.
HEK293 cells endogenously express several FGF receptors, including FGFR1c, FGFR3c and FGFR4. These cells are unresponsive to FGF21 until transfected with the co-receptor beta-klotho (BKL). Activation of the FGF receptor/BKL complex leads to activation of the MAPK/ERK signalling pathway and phosphorylation of ERK. The level of phosphorylated ERK (pERK) at a given time point increases with increasing concentrations of FGF21. As described below the level of pERK is measured after 12 minutes of stimulation with a range of FGF21 analogue concentrations.
The HEK293/beta-klotho cells are seeded with 30.000 cells/well in 96 well plates in DMEM (BioWhittaker #BE12-604F/U1), supplemented with 10% FCS (Gibco #16140-071), 1% penicillin/streptomycin (Gibco #15140), 100 µg/ml Hygromycin B, (Calbiochem, # 400052). Two days later and 2 hours before addition of compound the cell medium is exchanged with 100 ∞l basal medium (DMEM (BioWhittaker #BE12-604F/U1)). The FGF21 analogues are diluted in assay medium (DMEM (BioWhittaker #BE12-604F/U1) supplemented with 0.02% Tween20), warmed to 37° C., added to the cells (100 μl) and incubated at 37° C. for 12 minutes. The FGF21 derivatives were also tested in the presence of 0.1% HSA (Sigma—A1887). All medium is quickly removed and 50 μl lysis buffer is added pr. well. The plate is shaken for 5 minutes and the lysate is ready for measurement of pERK. pERK is measured in 384 well plates with the AlphaScreen SureFire kit (PerkinElmer #TGRES10K). This kit is based on ERK and pERK specific antibodies coupled to donor and acceptor beads. The presence of pERK will bring acceptor and donor beads in close proximity and a signal is generated that is read on EnVision. The data are analysed using GraphPad Prism and the potency of the FGF21 proteins is described as absolute EC50 value.

3T3-L1 adipocytes = 3T3-L1 adipocytes (Mus musculus, UniProt P16092+Q99N32); experiment: Glucose uptake in 3T3-L1 adipocytes; type: cell-based; settings: stimulated 20 hours, 3H-deoxy-glucose
Chain of 3T3-L1 adipocytes (Q99N32 whole entry): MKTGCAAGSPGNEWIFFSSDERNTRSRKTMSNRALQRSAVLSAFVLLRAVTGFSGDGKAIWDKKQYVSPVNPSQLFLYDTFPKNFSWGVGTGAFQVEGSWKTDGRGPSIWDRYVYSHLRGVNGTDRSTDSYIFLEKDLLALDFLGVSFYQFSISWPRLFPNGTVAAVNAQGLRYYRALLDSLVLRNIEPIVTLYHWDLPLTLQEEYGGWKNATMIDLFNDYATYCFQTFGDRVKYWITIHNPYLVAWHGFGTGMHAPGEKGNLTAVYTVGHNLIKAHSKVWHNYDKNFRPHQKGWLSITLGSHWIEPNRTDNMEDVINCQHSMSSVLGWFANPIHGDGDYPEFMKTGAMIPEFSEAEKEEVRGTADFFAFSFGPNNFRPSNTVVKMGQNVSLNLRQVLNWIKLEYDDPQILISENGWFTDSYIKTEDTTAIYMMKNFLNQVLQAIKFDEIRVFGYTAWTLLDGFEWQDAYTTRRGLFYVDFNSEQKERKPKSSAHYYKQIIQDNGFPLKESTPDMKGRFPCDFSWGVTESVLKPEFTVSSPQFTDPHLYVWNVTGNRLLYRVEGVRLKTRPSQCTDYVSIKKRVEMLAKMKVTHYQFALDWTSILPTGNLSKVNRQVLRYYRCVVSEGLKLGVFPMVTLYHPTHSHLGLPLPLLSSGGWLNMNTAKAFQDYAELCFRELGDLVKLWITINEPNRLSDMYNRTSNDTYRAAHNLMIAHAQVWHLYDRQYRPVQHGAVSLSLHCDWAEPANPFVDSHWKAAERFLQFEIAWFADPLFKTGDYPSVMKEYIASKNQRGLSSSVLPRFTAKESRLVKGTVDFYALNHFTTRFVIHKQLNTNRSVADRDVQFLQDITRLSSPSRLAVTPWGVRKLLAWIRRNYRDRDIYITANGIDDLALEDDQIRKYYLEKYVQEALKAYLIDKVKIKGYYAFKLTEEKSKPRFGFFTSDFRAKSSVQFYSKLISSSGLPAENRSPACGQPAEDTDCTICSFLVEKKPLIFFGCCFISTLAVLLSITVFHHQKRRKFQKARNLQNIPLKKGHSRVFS
Chain of 3T3-L1 adipocytes (P16092 22-822): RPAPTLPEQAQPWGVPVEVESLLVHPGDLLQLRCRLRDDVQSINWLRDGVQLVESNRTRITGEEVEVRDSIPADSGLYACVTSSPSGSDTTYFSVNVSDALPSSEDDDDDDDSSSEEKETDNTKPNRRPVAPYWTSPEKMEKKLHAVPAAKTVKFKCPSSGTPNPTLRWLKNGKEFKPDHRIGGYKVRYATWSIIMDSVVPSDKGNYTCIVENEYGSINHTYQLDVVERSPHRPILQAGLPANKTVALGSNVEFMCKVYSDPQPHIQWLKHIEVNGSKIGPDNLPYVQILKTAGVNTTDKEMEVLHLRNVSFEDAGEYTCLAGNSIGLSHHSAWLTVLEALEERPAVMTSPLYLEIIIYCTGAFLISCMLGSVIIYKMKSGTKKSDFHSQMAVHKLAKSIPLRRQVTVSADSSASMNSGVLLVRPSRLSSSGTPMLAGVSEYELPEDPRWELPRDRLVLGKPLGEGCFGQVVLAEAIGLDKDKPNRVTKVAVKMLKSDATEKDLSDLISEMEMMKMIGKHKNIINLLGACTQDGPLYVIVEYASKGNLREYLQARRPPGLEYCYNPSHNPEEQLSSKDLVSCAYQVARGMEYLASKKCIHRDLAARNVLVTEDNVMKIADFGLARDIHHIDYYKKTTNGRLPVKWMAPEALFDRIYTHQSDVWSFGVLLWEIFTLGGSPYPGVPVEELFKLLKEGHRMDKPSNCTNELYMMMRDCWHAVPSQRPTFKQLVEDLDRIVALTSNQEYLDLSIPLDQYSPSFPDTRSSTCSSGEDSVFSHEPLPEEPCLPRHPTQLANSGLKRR
Protocol: The C-terminal modified analogues were tested for their ability to increase glucose uptake in 3T3-L1 mouse adipocytes. The following assay was used for determining the biological activity, or potency, of FGF21 analogues and derivatives of the invention.
The in vitro potency may also be determined in an assay with mouse 3T3-L1 adipocytes by testing the FGF21 analogues and derivatives for their ability to increase glucose uptake into adipocytes. Differentiated 3T3-L1 adipocytes endogenously express FGFR1c and BKL. The 3T3-L1 cells are unresponsive to FGF21 until after differentiated as differentiation lead to expression of the co-receptor BKL. Activation of the FGFR1 receptor/BKL complex increase the expression of glucose transporter 1 (GLUT1) and therefore FGF21 agonists will lead to an increased amount of glucose taken into the adipocytes in a dose responsive manner.
Mouse 3T3-L1 fibroblasts (e.g. available from ATCC, catalogue no. CL-173) were maintained in basal medium (DMEM (4500 mg/I Glucose) with 10% Fetal Bovine Serum (FBS) and 1% Penicillin/Streptomycin). The cells are not allowed to reach confluence and should be passed (transferred to new vials) before reaching approx. 60% of confluency (by visual inspection).
For the glucose uptake assay, cells were 15.000 cells/well in a 96 well plate (BIOCOAT), and when they reached confluency (high density, with a view to have differentiated adipose cells made), the medium was changed from basal medium to basal medium containing Troglitazone, IBMX, Dexamethasone (commercially available from, e.g., Sigma) and human insulin (commercially available from, e.g., Novo Nordisk A/S).
The cells were used 7-9, days after initiation of differentiation. The cells were stimulated with increasing concentrations (0-300 nM) of the FGF21 analogues or derivatives of the invention for 20 hours in basal medium. Before addition of 3H-deoxy-glucose (in what follows: the tracer) the cells were washed in warm (approximately 37° C.) assay buffer (PBS with 1 mM MgCl2 and 2 mM CaCl2), HEPES and 0.1% Human serum albumin) and the cells were incubated with the tracer for 1 hour. This incubation was terminated by washing twice in ice cold assay buffer. The cells were lysed with Triton X-100 and lysates transferred to a 96 wells plate, microscint-40 (commercially available from, e.g., Perkin Elmer) was added and amount of tracer counted in a TOP-counter (e.g. a Packard top-counter from Perkin Elmer). The EC50 and Emax of the FGF21 compound in question were calculated. The results which are shown in tables 4-5 below indicate the EC50 (potency) and Emax (efficacy) of the FGF21 analogues and derivatives, respectively.

[1] = presence of 0.1% HSA, read-out: EC50 (0.1% HSA)

Chain of FGF receptor/BKL complex (Q86Z14 whole entry, one chain of several): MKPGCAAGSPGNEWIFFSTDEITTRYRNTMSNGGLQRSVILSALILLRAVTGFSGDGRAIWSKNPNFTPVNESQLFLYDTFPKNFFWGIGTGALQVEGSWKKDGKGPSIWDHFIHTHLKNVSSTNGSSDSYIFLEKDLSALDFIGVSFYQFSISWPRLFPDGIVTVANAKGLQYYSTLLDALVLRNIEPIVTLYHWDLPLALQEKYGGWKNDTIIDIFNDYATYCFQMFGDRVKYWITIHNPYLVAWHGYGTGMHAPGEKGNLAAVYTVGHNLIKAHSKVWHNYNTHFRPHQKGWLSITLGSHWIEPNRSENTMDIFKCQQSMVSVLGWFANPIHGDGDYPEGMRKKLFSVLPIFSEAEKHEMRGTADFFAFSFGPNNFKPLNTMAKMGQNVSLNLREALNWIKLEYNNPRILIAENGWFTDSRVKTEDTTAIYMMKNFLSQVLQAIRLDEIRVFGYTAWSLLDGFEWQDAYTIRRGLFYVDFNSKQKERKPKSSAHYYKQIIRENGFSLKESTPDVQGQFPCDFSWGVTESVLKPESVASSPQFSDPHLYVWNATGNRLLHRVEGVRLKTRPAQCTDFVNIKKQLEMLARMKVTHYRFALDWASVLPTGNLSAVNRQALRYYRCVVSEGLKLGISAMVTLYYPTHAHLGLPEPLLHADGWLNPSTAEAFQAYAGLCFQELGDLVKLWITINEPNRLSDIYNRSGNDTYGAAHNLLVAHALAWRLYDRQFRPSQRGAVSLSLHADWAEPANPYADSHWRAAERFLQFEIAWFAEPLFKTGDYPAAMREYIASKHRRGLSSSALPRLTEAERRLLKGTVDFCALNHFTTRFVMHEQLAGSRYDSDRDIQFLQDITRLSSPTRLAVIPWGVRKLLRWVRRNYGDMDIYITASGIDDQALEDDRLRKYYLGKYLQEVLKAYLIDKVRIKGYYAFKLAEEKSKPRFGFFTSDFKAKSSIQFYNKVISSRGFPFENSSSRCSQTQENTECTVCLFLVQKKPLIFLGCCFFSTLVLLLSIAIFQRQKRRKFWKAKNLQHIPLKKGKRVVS

Molecule: S{Beta-178}-[2-[2-[[2-[2-[2-[[2-[2-[2-[[(4S)-4-carboxy-4-(15-carboxypentadecanoyl-amino)butanoyl]amino]ethoxy]ethoxy]acetyl]amino]ethoxy]ethoxy]acetyl]amino]-ethylamino]-2-oxoethyl]-Ala[Gln121,Leu168,Cys178]FGF21 [Compound 11]
- EC50 (FGF receptor/BKL complex; absence of HSA, read-out: EC50): 167 nM
- EC50 (FGF receptor/BKL complex; [1]): 137 nM
- EC50 (3T3-L1 adipocytes): 186 nM
- Glucose uptake Emax (3T3-L1 adipocytes): 59%

B1: S{Beta-180}-2-aminoethylsulfanyl-Ala[Gln121, Leu168, Cys180]FGF21 (protein)
chain: AHPIPDSSPLLQFGGQVRQRYLYTDDAQQTEAHLEIREDGTVGGAADQSPESLLQLKALKPGVIQILGVKTSRFLCQRPDGALYGSLHFDPEACSFRELLLEDGYNVYQSEAHGLPLHLPGQKSPHRDPAPRGPARFLPLPGLPPALPEPPGILAPQPPDVGSSDPLSLVGPSQGRSPSYCS
modifications: N-terminal Ala; cysteamine disulfide on Cys180
- EC50 (FGF receptor/BKL complex; absence of HSA, read-out: EC50): 2.3 nM
- potency in HEK293/BKL cells compared with MetFGF21 or corresponding analogue (in words) (FGF receptor/BKL complex; absence of HSA): potency similar to both MetFGF21 and Compound 2
- EC50 (3T3-L1 adipocytes): 2.6 nM
- Glucose uptake Emax (3T3-L1 adipocytes): 102%

B2: 16-[[4-[[(1S)-4-[2-[2-[2-[2-[2-[2-(2-acetamidoethylamino)-2-oxo-ethoxy]ethoxy]ethylamino]-2-oxo-ethoxy]ethoxy]ethylamino]-1-carboxy-4-oxo-butyl]carbamoyl]cyclohexyl]methylamino]-16-oxo-hexadecanoic … (protein)
chain: HPIPDSSPLLQFGGQVRQRYLYTDDAQQTEAHLEIREDGTVGGAADQSPESLLQLKALKPGVIQILGVKTSRFLCQRPDGALYGSLHFDPEACSFRELLLEDGYNVYQSEAHGLPLHLPGQKSPHRDPAPRGPARFLPLPGLPPALPEPPGILAPQPPDVGSSDPLSLVGPSQGRSPSYCS
- EC50 (FGF receptor/BKL complex; absence of HSA, read-out: EC50): 3.5 nM
- EC50 (FGF receptor/BKL complex; [1]): 3.2 nM

B3: 16-[[4-[[(1S)-4-[2-[2-[2-[2-[2-[2-[[(1S)-5-[(2-acetamido]-1-carboxy-pentyl]amino]-2-oxo-ethoxy]ethoxy]ethylamino]-2-oxo-ethoxy]ethoxy]ethylamino]-1-carboxy-4-oxo-butyl]carbamoyl]cyclohexyl]methylamino … (protein)
chain: HPIPDSSPLLQFGGQVRQRYLYTDDAQQTEAHLEIREDGTVGGAADQSPESLLQLKALKPGVIQILGVKTSRFLCQRPDGALYGSLHFDPEACSFRELLLEDGYNVYQSEAHGLPLHLPGQKSPHRDPAPRGPARFLPLPGLPPALPEPPGILAPQPPDVGSSDPLSLVGPSQGRSPSYCS
- EC50 (FGF receptor/BKL complex; absence of HSA, read-out: EC50): 4 nM
- EC50 (FGF receptor/BKL complex; [1]): 2.1 nM

B4: 18-[[4-[[(1S)-4-[2-[2-[2-[2-[2-[2-[[(1S)-5-[(2-acetamido]-1-carboxy-pentyl]amino]-2-oxo-ethoxy]ethoxy]ethylamino]-2-oxo-ethoxy]ethoxy]ethylamino]-1-carboxy-4-oxo-butyl]carbamoyl]cyclohexyl]methylamino … (protein)
chain: HPIPDSSPLLQFGGQVRQRYLYTDDAQQTEAHLEIREDGTVGGAADQSPESLLQLKALKPGVIQILGVKTSRFLCQRPDGALYGSLHFDPEACSFRELLLEDGYNVYQSEAHGLPLHLPGQKSPHRDPAPRGPARFLPLPGLPPALPEPPGILAPQPPDVGSSDPLSLVGPSQGRSPSYCS
- EC50 (FGF receptor/BKL complex; absence of HSA, read-out: EC50): 4 nM
- EC50 (FGF receptor/BKL complex; [1]): 14 nM

B5: 12-[[4-[[(1S)-4-[2-[2-[2-[2-[2-[2-(2-acetamidoethylamino)-2-oxo-ethoxy]ethoxy]ethylamino]-2-oxo-ethoxy]ethoxy]ethylamino]-1-carboxy-4-oxo-butyl]carbamoyl]cyclohexyl]methylamino]-12-oxo-dodecanoic … (protein)
chain: HPIPDSSPLLQFGGQVRQRYLYTDDAQQTEAHLEIREDGTVGGAADQSPESLLQLKALKPGVIQILGVKTSRFLCQRPDGALYGSLHFDPEACSFRELLLEDGYNVYQSEAHGLPLHLPGQKSPHRDPAPRGPARFLPLPGLPPALPEPPGILAPQPPDVGSSDPLSLVGPSQGRSPSYCS
- EC50 (FGF receptor/BKL complex; absence of HSA, read-out: EC50): 4 nM
- EC50 (FGF receptor/BKL complex; [1]): 4.7 nM

B6: 4-[10-[[(1S)-4-[2-[2-[2-[2-[2-[2-[[(1S)-5-acetamido-1-carboxy-pentyl]amino]-2-oxo-ethoxy]ethoxy]ethylamino]-2-oxo-ethoxy]ethoxy]ethylamino]-1-carboxy-4-oxo-butyl]amino]-10-oxo-decoxy]benzoic … (protein)
chain: HPIPDSSPLLQFGGQVRQRYLYTDDAQQTEAHLEIREDGTVGGAADQSPESLLQLKALKPGVIQILGVKTSRFLCQRPDGALYGSLHFDPEACSFRELLLEDGYNVYQSEAHGLPLHLPGQKSPHRDPAPRGPARFLPLPGLPPALPEPPGILAPQPPDVGSSDPLSLVGPSQGRSPSYAC
- EC50 (FGF receptor/BKL complex; absence of HSA, read-out: EC50): 26.4 nM
- EC50 (FGF receptor/BKL complex; [1]): 138 nM

B7: 4-[10-[[4-[2-[2-[2-[2-[2-[2-[[(1S)-5-acetamido-1-carboxy-pentyl]amino]-2-oxo-ethoxy]ethoxy]ethylamino]-2-oxo-ethoxy]ethoxy]ethylamino]-4-oxo-butyl]sulfonylamino]-10-oxo-decoxy]benzoic … (protein)
chain: HPIPDSSPLLQFGGQVRQRYLYTDDAQQTEAHLEIREDGTVGGAADQSPESLLQLKALKPGVIQILGVKTSRFLCQRPDGALYGSLHFDPEACSFRELLLEDGYNVYQSEAHGLPLHLPGQKSPHRDPAPRGPARFLPLPGLPPALPEPPGILAPQPPDVGSSDPLSLVGPSQGRSPSYAC
- EC50 (FGF receptor/BKL complex; absence of HSA, read-out: EC50): 24.7 nM
- EC50 (FGF receptor/BKL complex; [1]): 132 nM

B8: 4-[10-[[(1S)-4-[2-[2-[2-[2-[2-[2-[[(1S)-5-acetamido-1-carboxy-pentyl]amino]-2-oxo-ethoxy]ethoxy]ethylamino]-2-oxo-ethoxy]ethoxy]ethylamino]-1-carboxy-4-oxo-butyl]amino]-10-oxo-decoxy]benzoic … (protein)
chain: HPIPDSSPLLQFGGQVRQRYLYTDDAQQTEAHLEIREDGTVGGAADQSPESLLQLKALKPGVIQILGVKTSRFLCQRPDGALYGSLHFDPEACSFRELLLEDGYNVYQSEAHGLPLHLPGQKSPHRDPAPRGPARFLPLPGLPPALPEPPGILAPQPPDVGSSDPLSLVGPSQGRSPSYCS
- EC50 (FGF receptor/BKL complex; absence of HSA, read-out: EC50): 5 nM
- EC50 (FGF receptor/BKL complex; [1]): 3 nM
